Measured values taken from publication PMC3992927 (Cancer discovery, 2014).
Numbering of substitutions follows the chain as printed.

Columns and labels:
[1] = biological target: T1, myc epitope-tagged RNF31 Q584H (human, UniProt Q96EP0-1 1-1072, Q584H); experiment: co-IP
T1 sequence (looked up): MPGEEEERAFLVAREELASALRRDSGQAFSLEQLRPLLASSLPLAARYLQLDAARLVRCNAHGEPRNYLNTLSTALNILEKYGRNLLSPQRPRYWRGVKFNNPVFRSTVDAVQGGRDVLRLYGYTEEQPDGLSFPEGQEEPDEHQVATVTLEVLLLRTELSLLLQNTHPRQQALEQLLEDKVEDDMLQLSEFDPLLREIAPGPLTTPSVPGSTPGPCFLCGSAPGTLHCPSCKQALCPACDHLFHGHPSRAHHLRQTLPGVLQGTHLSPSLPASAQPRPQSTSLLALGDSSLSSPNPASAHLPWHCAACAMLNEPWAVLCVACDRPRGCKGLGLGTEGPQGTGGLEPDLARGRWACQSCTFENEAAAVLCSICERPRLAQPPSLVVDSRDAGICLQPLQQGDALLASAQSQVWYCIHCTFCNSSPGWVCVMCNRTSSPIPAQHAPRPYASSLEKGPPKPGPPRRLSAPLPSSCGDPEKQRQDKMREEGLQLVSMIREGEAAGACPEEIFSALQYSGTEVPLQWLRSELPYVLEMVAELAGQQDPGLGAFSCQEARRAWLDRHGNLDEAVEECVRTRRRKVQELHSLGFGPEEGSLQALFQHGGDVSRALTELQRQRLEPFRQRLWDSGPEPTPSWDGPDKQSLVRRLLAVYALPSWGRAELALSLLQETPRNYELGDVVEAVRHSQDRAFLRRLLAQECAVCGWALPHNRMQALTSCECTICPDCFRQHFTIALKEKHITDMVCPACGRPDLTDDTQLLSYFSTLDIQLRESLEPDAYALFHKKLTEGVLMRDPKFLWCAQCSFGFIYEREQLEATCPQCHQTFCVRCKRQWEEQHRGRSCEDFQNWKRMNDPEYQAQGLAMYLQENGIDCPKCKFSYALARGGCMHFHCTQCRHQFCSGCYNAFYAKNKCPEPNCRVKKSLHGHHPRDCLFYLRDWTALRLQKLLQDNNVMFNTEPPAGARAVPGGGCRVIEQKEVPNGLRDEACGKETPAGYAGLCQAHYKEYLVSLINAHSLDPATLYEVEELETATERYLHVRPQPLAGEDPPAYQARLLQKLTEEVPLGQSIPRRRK

[2] = biological target: T2, myc epitope-tagged RNF31 Q622L (human, UniProt Q96EP0-1 1-1072, Q622L); experiment: co-IP
T2 sequence (looked up): T1 sequence (looked up) with H584Q, Q622L

fold co-immunoprecipitation relative to wild type RNF31 [1]: 1.4 fold | fold co-immunoprecipitation relative to wild type RNF31 [2]: 2.07 fold
B1: RBCK1 (natural protein, human (endogenous in HBL1), UniProt Q9BYM8-1 1-510, looked up)
chain: MDEKTKKAEEMALSLTRAVAGGDEQVAMKCAIWLAEQRVPLSVQLKPEVSPTQDIRLWVSVEDAQMHTVTIWLTVRPDMTVASLKDMVFLDYGFPPVLQQWVIGQRLARDQETLHSHGVRQNGDSAYLYLLSARNTSLNPQELQRERQLRMLEDLGFKDLTLQPRGPLEPGPPKPGVPQEPGRGQPDAVPEPPPVGWQCPGCTFINKPTRPGCEMCCRARPEAYQVPASYQPDEEERARLAGEEEALRQYQQRKQQQQEGNYLQHVQLDQRSLVLNTEPAECPVCYSVLAPGEAVVLRECLHTFCRECLQGTIRNSQEAEVSCPFIDNTYSCSGKLLEREIKALLTPEDYQRFLDLGISIAENRSAFSYHCKTPDCKGWCFFEDDVNEFTCPVCFHVNCLLCKAIHEQMNCKEYQEDLALRAQNDVAARQTTEMLKVMLQQGEAMRCPQCQIVVQKKDGCDWIRCTVCHTEICWVTKGPRWGPGGPGDTSGGCRCRVNGIPCHPSCQNCH
